Here are results for nine molecules from patent US20120034160A1 (AbbVie / Abbott, published 2012).

For test [1], the target named is T1, Recombinant Human IL-17 (human, UniProt Q16552 20-155, limits assumed).
T1 construct: bought reagent
T1 sequence (looked up): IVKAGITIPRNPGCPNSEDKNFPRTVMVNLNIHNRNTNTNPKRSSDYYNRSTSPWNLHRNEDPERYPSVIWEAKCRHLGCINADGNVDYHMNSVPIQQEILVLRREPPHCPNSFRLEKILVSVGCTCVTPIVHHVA
Put plainly: Biacore SPR; C-terminal VD. Put shortly:
(§1)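 SPR, 25° C, HBS-EP (10 mM HEPES pH 7.4, 150 mM NaCl, 3 mM EDTA, 0.005% P20). Capture via anti-mouse IgG Fcγ chip; analyte 10−200 nM at 25 μl/min. 1:1 Langmuir global fit; KD = koff/kon.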

The target in test [2] is T2, Recombinant Human IL-1β (human, UniProt P01584 117-269).
T2 construct: bought reagent; also called IL-1B
The experiment in a line: Biacore SPR; N-terminal VD. The gist of the method:
as §1

B1: DVD1605 (bispecific antibody, human IgG1, kappa)
heavy: not shown
light: DTVVTQSPAFLSVTPGEKVTITCITSTDIDVDMNWYQQKPDQPPKLLISQGNTLRPGVPSRFSSSGSGTDFTFTISSLEAEDAATYYCLQSDNLPLTFGQGTKLEIKRTVAAPSVFIFPPEIVLTQSPDFQSVTPKEKVTITCRASQDIGSELHWYQQKPDQPPKLLIKYASHSTSGVPSRFSGSGSGTDFTLTINGLEAEDAGTYYCHQTDSLPYTFGPGTKVDIKRTVAAPSVFIFPPSDEQLKSGTASVVCLLNNFYPREAKVQWKVDNALQSGNSQESVTEQDSKDSTYSLSSTLTLSKADYEKHKVYACEVTHQGLSSPVTKSFNRGEC
notes: DVD-Ig, outer AB271, inner AB274, linker set 2; V1 wt hIgG1, V2 kappa; also called DVD1605H; DVD1605L
Regarding B1, in test [1], the Kd is ≤ 0.068 pM, the koff is < 1e-06 s⁻¹ and the kon was 410000 M⁻¹ s⁻¹. In test [2], the Kd came to 59 pM, the koff is 0.0005 s⁻¹ and the kon was 8.6e+06 M⁻¹ s⁻¹.

B2: DVD1597 (bispecific antibody, human IgG1, kappa)
heavy: not shown
light: ETTVTQSPSSLSASVGDRVTITCITSTDIDVDMNWYQQKPGKPPKLLISQGNTLRPGVPSRFSSSGSGTDFTFTISSLQPEDFATYYCLQSDNLPLTFGQGTKLEIKRTVAAPSVFIFPPDIQMTQSPSSLSASVGDRVTITCRASSGIISYIDWFQQKPGKAPKRLIYATFDLASGVPSRFSGSGSGTDYTLTISSLQPEDFATYYCRQVGSYPETFGQGTKLEIKRTVAAPSVFIFPPSDEQLKSGTASVVCLLNNFYPREAKVQWKVDNALQSGNSQESVTEQDSKDSTYSLSSTLTLSKADYEKHKVYACEVTHQGLSSPVTKSFNRGEC
notes: DVD-Ig, outer AB272, inner AB273, linker set 2; V1 wt hIgG1, V2 kappa; also called DVD1597H; DVD1597L
Regarding B2, in test [1], the dissociation constant (Kd) came out at 12 pM, the off-rate (koff) worked out at 4.1e-06 s⁻¹ and the kon came to 350000 M⁻¹ s⁻¹. In test [2], the Kd came out at 75 pM, the off-rate (koff) stood at 0.00063 s⁻¹ and the kon is 8.4e+06 M⁻¹ s⁻¹.

B3: DVD1595 (bispecific antibody, human IgG1, kappa)
heavy: not shown
light: DTVVTQSPAFLSVTPGEKVTITCITSTDIDVDMNWYQQKPDQPPKLLISQGNTLRPGVPSRFSSSGSGTDFTFTISSLEAEDAATYYCLQSDNLPLTFGQGTKLEIKRTVAAPSVFIFPPDIQMTQSPSSLSASVGDRVTITCRASSGIISYIDWFQQKPGKAPKRLIYATFDLASGVPSRFSGSGSGTDYTLTISSLQPEDFATYYCRQVGSYPETFGQGTKLEIKRTVAAPSVFIFPPSDEQLKSGTASVVCLLNNFYPREAKVQWKVDNALQSGNSQESVTEQDSKDSTYSLSSTLTLSKADYEKHKVYACEVTHQGLSSPVTKSFNRGEC
notes: DVD-Ig, outer AB271, inner AB273, linker set 2; V1 wt hIgG1, V2 kappa; also called DVD1595H; DVD1595L
For B3, in test [1], the dissociation constant (Kd) amounted to 4.3 pM, the koff turned out to be 6e-06 s⁻¹ and the kon turned out to be 1.4e+06 M⁻¹ s⁻¹. Moreover, in test [2], the Kd worked out at 55 pM, the koff stood at 0.00041 s⁻¹ and the on-rate (kon) amounted to 7.4e+06 M⁻¹ s⁻¹.

B4: DVD1599 (bispecific antibody, human IgG1, kappa)
heavy: not shown
light: DIQMTQSPSSLSASVGDRVTITCRASGNIHNYLTWYQQTPGKAPKLLIYNAKTLADGVPSRFSGSGSGTDYTFTISSLQPEDIATYYCQHFWSIPYTFGQGTKLQITRTVAAPSVFIFPPEIVLTQSPDFQSVTPKEKVTITCRASQDIGSELHWYQQKPDQPPKLLIKYASHSTSGVPSRFSGSGSGTDFTLTINGLEAEDAGTYYCHQTDSLPYTFGPGTKVDIKRTVAAPSVFIFPPSDEQLKSGTASVVCLLNNFYPREAKVQWKVDNALQSGNSQESVTEQDSKDSTYSLSSTLTLSKADYEKHKVYACEVTHQGLSSPVTKSFNRGEC
notes: V1 wt hIgG1, V2 kappa; also called DVD1599H; DVD1599L
Consider B4, for which, in test [1], the Kd is ≤ 0.074 pM, the koff was < 1e-06 s⁻¹ and the kon came out at 120000 M⁻¹ s⁻¹. Further, in test [2], the Kd turned out to be 21 pM, the koff stood at 4.1e-05 s⁻¹ and the kon is 2e+06 M⁻¹ s⁻¹.

B5: DVD1609 (bispecific antibody, human IgG1, kappa)
heavy: not shown
light: DIQMTQSPSSLSASVGDRVTITCRASGNIHNYLTWYQQTPGKAPKLLIYNAKTLADGVPSRFSGSGSGTDYTFTISSLQPEDIATYYCQHFWSIPYTFGQGTKLQITRTVAAPSVFIFPPEIVLTQSPDFQSVTPKEKVTITCRASQNIGSELHWYQQKPDQSPKLLIKYASHSISGVPSRFSGSGSGTDFTLTINGLEAEDAATYYCHQSDTLPHTFGQGTKVDIKRTVAAPSVFIFPPSDEQLKSGTASVVCLLNNFYPREAKVQWKVDNALQSGNSQESVTEQDSKDSTYSLSSTLTLSKADYEKHKVYACEVTHQGLSSPVTKSFNRGEC
notes: V1 wt hIgG1, V2 kappa; also called DVD1609H; DVD1609L
Regarding B5, in test [1], the Kd was ≤ 0.84 pM, the koff is < 1e-06 s⁻¹ and the kon was determined as 89000 M⁻¹ s⁻¹. Further, in test [2], the Kd is 22 pM, the koff stood at 4.6e-05 s⁻¹ and the kon is 2.1e+06 M⁻¹ s⁻¹.

B6: DVD1611 (bispecific antibody, human IgG1, kappa)
heavy: not shown
light: DIQMTQSPSSLSASVGDRVTITCRASGNIHNYLTWYQQTPGKAPKLLIYNAKTLADGVPSRFSGSGSGTDYTFTISSLQPEDIATYYCQHFWSIPYTFGQGTKLQITRTVAAPSVFIFPPEIVLTQSPDFQSVTPKEKVTITCRASQNIGSELHWYQQKPDQSPKLLIKYASHSISGVPSRFSGSGSGTDFTLTINGLEAEDAATYYCHQSDTLPHTFGQGTKVDIKRTVAAPSVFIFPPSDEQLKSGTASVVCLLNNFYPREAKVQWKVDNALQSGNSQESVTEQDSKDSTYSLSSTLTLSKADYEKHKVYACEVTHQGLSSPVTKSFNRGEC
notes: V1 wt hIgG1, V2 kappa; also called DVD1611H; DVD1611L
Regarding B6, in test [1], the Kd came to 15 pM, the koff stood at 6e-05 s⁻¹ and the kon was 4.1e+06 M⁻¹ s⁻¹. In addition, in test [2], the equilibrium dissociation constant (Kd) came to 420 pM, the koff is 0.00013 s⁻¹ and the kon was found to be 310000 M⁻¹ s⁻¹.

B7: DVD1601 (bispecific antibody, human IgG1, kappa)
heavy: not shown
light: DIQMTQSPSSLSASVGDRVTITCRASGNIHNYLTWYQQTPGKAPKLLIYNAKTLADGVPSRFSGSGSGTDYTFTISSLQPEDIATYYCQHFWSIPYTFGQGTKLQITRTVAAPSVFIFPPEIVLTQSPDFQSVTPKEKVTITCRASQDIGSELHWYQQKPDQPPKLLIKYASHSTSGVPSRFSGSGSGTDFTLTINGLEAEDAGTYYCHQTDSLPYTFGPGTKVDIKRTVAAPSVFIFPPSDEQLKSGTASVVCLLNNFYPREAKVQWKVDNALQSGNSQESVTEQDSKDSTYSLSSTLTLSKADYEKHKVYACEVTHQGLSSPVTKSFNRGEC
notes: V1 wt hIgG1, V2 kappa; also called DVD1601H; DVD1601L
Consider B7, for which, in test [1], the Kd was ≤ 0.12 pM, the koff was < 1e-06 s⁻¹ and the kon stood at 120000 M⁻¹ s⁻¹. In test [2], the Kd is 16 pM, the koff came out at 2e-05 s⁻¹ and the kon was 1.2e+06 M⁻¹ s⁻¹.

B8: DVD1603 (bispecific antibody, human IgG1, kappa)
heavy: not shown
light: DTQVTQSPSSLSASVGDRVTITCITSTDIDVDMNWYQQKPGKPPKLLISQGNTLRPGVPSRFSSSGSGTDFTFTISSLQPEDFATYYCLQSDNLPLTFGQGTKLEIKRTVAAPSVFIFPPEIVLTQSPDFQSVTPKEKVTITCRASQDIGSELHWYQQKPDQPPKLLIKYASHSTSGVPSRFSGSGSGTDFTLTINGLEAEDAGTYYCHQTDSLPYTFGPGTKVDIKRTVAAPSVFIFPPSDEQLKSGTASVVCLLNNFYPREAKVQWKVDNALQSGNSQESVTEQDSKDSTYSLSSTLTLSKADYEKHKVYACEVTHQGLSSPVTKSFNRGEC
notes: DVD-Ig, outer AB270, inner AB274, linker set 2; V1 wt hIgG1, V2 kappa; also called DVD1603H; DVD1603L
Turning to B8, in test [1], the Kd is ≤ 0.27 pM, the koff is < 1e-06 s⁻¹ and the kon turned out to be 310000 M⁻¹ s⁻¹. Besides, in test [2], the Kd was 69 pM, the off-rate (koff) amounted to 0.00048 s⁻¹ and the kon was 6.9e+06 M⁻¹ s⁻¹.

B9: DVD1613 (bispecific antibody, human IgG1, kappa)
heavy: not shown
light: DTQVTQSPSSLSASVGDRVTITCITSTDIDVDMNWYQQKPGKPPKLLISQGNTLRPGVPSRFSSSGSGTDFTFTISSLQPEDFATYYCLQSDNLPLTFGQGTKLEIKRTVAAPSVFIFPPEIVLTQSPDFQSVTPKEKVTITCRASQNIGSELHWYQQKPDQSPKLLIKYASHSISGVPSRFSGSGSGTDFTLTINGLEAEDAATYYCHQSDTLPHTFGQGTKVDIKRTVAAPSVFIFPPSDEQLKSGTASVVCLLNNFYPREAKVQWKVDNALQSGNSQESVTEQDSKDSTYSLSSTLTLSKADYEKHKVYACEVTHQGLSSPVTKSFNRGEC
notes: DVD-Ig, outer AB270, inner AB275, linker set 2; V1 wt hIgG1, V2 kappa; also called DVD1613H; DVD1613L
As for B9, in test [1], the Kd is ≤ 0.15 pM, the koff was < 1e-06 s⁻¹ and the kon amounted to 360000 M⁻¹ s⁻¹. Also, in test [2], the Kd came out at 59 pM, the koff turned out to be 0.00046 s⁻¹ and the kon worked out at 7.8e+06 M⁻¹ s⁻¹.
